The results in this text go back to patent publication US20120114652A1 (AbbVie / Abbott, published 2012).

Holding throughout (assay): cell-based or functional assay
The target of assay [1] is T1, mouse PAI-1 (mouse, UniProt P22777 24-401).
T1 sequence: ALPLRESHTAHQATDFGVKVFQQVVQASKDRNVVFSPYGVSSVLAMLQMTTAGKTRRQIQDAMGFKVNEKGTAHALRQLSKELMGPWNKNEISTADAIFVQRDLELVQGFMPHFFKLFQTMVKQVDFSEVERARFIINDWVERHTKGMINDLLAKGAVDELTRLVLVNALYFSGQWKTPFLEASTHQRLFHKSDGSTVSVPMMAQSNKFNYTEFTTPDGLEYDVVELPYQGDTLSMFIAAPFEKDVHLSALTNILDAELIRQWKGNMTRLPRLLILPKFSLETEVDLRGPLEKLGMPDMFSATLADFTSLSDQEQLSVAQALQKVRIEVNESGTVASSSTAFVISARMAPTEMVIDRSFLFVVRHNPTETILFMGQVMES

The target in assay [2] is T2, rat PAI-1 (rat, UniProt P20961 24-402).
T2 sequence: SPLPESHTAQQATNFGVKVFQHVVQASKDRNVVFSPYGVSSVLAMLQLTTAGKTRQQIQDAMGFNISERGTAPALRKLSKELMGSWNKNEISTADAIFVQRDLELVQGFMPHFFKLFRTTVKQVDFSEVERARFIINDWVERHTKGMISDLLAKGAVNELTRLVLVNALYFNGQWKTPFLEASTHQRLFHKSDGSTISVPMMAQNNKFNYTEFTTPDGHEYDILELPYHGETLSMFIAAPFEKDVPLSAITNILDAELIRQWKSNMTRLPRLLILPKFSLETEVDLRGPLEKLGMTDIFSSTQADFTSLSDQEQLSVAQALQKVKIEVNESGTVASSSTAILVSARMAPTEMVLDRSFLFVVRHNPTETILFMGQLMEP

Assay [3] deals with T3, human PAI-1, active, wild-type, non-glycosylated (E. coli-derived) (human, UniProt P05121 24-402).
A further assay deals with cynomolgus PAI-1 (cynomolgus, UniProt P05121 24-402 (human entry), limits assumed).
For assay [4], the target named is T2, rat PAI-1. This is another data set of the same source.
Assay [5] has as its target T1, mouse PAI-1. The source holds these as a separate data set.
The target of assay [6] is T3, human PAI-1, active, wild-type, …. The source holds these as a separate data set.

B1: Antibody 14, scFv (scFv, V domains shown)
VH: QVQLQQSGAEVKKPGSSVKVSCKASGGTFSSYAISWVRQAPGQGLEWMGGIIPTFGTANYAQKFQGRVTITADESTSTAYMELSGLRSEDTAVYYCAREKRQWLEGHFDYWGRGTLVTVSS
VL: DIQMTQSPSFLSASIGDRVTITCRASEGIYHNLAWYQQKPGKAPKLLIYRASSLASGAPSRFSGSGSGTDFTFTISSLQPDDFATYYCQQYSNYPLTFGGGTKLEIK
As to B1, the “IC50 HT-1080 Exo PAI-1” value with mouse PAI-1 [1] came out at 0.022 µM; with rat PAI-1 [2] it was 0.052 µM; in assay [3], 0.028 µM. Besides, the IC50 chromogenic in the assay with cynomolgus PAI-1 turned out to be 0.0008 µM; with rat PAI-1 [4] it was 0.0231 µM.

B2: Antibody 07, scFv (scFv, V domains shown)
VH: QVQLQQSGAEVKKPGSSVKVSCKASGGTFSSYAISWVRQAPGQGLEWVGGIIPTFGTANYAQKFQGRVTITADESTSTAYMELSGLRSEDTAVYYCAREKRQWLEGHFDYWGRGTPVTVSS
VL: DIQMAQSPSFLSASIGDRVTITCRASEGIYHELAWYQQKPGKAPKLLIYRASSLASGAPSRFSGSGSGTDFTLTISSLQPDDFATYYCQQYSNYPLTFGGGTKLEIK
Regarding B2, the IC50 chromogenic in the assay with cynomolgus PAI-1 was 0.117 µM; with mouse PAI-1 [5], 0.143 µM; with rat PAI-1 [4], 0.091 µM; in assay [6], 0.187 µM. Moreover, the IC50 ratio cyno/human with cynomolgus PAI-1 is 0.6. The IC50 ratio mouse/human with mouse PAI-1 [5] was found to be 0.8. In addition, the IC50 ratio rat/human with rat PAI-1 [4] was found to be 0.5.

B3: Antibody 02, scFv (scFv, V domains shown)
VH: QVQLVQSGAEVKKPGSSVKVSCKASGGTFSSYAISWVRQAPGQGLEWMGGIIPTFGTANYAQKFQGRVTITADESTSTAYMELSSLRSEDTAVYYCAREKRQWLEGHFDYWGRGTLVTVSS
VL: DIQMTQSPSTLSASVGDRVTITCRASEGIYHSLAWYQQKPGKAPKLLIYKASSLASGVPSRFSGSGSGTEFTLTISSLQPDDFATYYCQQYSDYPLTFGGGTKVEIK
Regarding B3, in the assay with cynomolgus PAI-1, the IC50 chromogenic was 0.0011 µM and the IC50 ratio cyno/human stood at 1.8. In addition, in the assay with mouse PAI-1 [5], the IC50 chromogenic was found to be 0.553 µM and the IC50 ratio mouse/human came out at 929. Further, in the assay with rat PAI-1 [4], the IC50 chromogenic was 0.53 µM and the IC50 ratio rat/human was 891. For the same molecule, in assay [6], the IC50 chromogenic was determined as 0.0006 µM.

B4: Antibody 03, scFv (scFv, V domains shown)
VH: QVQLQQSGAEVKKPGSSVKVSCKASGGTFSSYAISWVRQAPGQGLEWMGGIIPTFGTANYAQKFQGRVTITADESTSTAYMELSGLRSEDTAVYYCAREKRQWLEGHFDYWGRGTPVTVSS
VL: DIQMTQSPSFLSASIGDRVTITCRASEGIYRSLAWYQQKPGKAPKLLIYKASSLASGAPSRFSGSGSGTDFTLTISGLQPDDFATYYCQQYSNYPLTFGGGTKLEIK
In the case of B4, in the assay with cynomolgus PAI-1, the IC50 chromogenic was found to be 0.0001 µM and the IC50 ratio cyno/human was 0.1. In the assay with mouse PAI-1 [5], the IC50 chromogenic came to 0.0549 µM and the IC50 ratio mouse/human came out at 30.5. Moreover, in the assay with rat PAI-1 [4], the IC50 chromogenic was 0.297 µM and the IC50 ratio rat/human was determined as 165. Further, the IC50 chromogenic in assay [6] amounted to 0.0018 µM.

B5: Antibody 10, scFv (scFv, V domains shown)
VH: QVQLQQSGAEVKKPGSSVKVSCKASGGTFSSYAISWVRQAPGQGLEWMGGIIPTFGTANYAQKFQGRVTITADESTSTAYMELSSLRSEDTAVYYCAREKRQWLEGHFDYWGRGTPVTVSS
VL: DIQMTQSPSFLSASIGDRVAITCRASEGIYHSLAWYQQKPGKAPKLLIYRASSLASGAPSRFSGSGSGTDFTLTISSLQPDDFATYYCQQYSNYPLTFGGGTRLEIK
With B5, in the assay with cynomolgus PAI-1, the IC50 chromogenic was determined as 0.0005 µM and the IC50 ratio cyno/human worked out at 0.2. Also, in the assay with mouse PAI-1 [5], the IC50 chromogenic is 0.334 µM and the IC50 ratio mouse/human was 149. In addition, in the assay with rat PAI-1 [4], the IC50 chromogenic turned out to be 0.296 µM and the IC50 ratio rat/human stood at 132. The IC50 chromogenic in assay [6] was found to be 0.0022 µM.

B6: Antibody 06, scFv (scFv, V domains shown)
VH: QVQLQQSGAEVKKPGSSVKVSCKASGGTFSSYAISWVRQAPGQGLEWMGGIIPTFGTANYAQKFQGRVTITADESTSTAYMELSGLRSEDTAVYYCAREKRQWLEGHFDYWGRGTPVTVSS
VL: DIQMTQSPSFLSASIGDRVTITCRASEGIYHELAWYQQKPGKAPKLLIYRASSLASGAPSRFSGSGSGTDFTLTISSLQPDDFATYYCQQYSNYPLTFGRGTKLEIK
For the molecule B6, in the assay with cynomolgus PAI-1, the IC50 chromogenic was determined as 0.0316 µM and the IC50 ratio cyno/human was 0.4. For the same molecule, in the assay with mouse PAI-1 [5], the IC50 chromogenic came to 0.0482 µM and the IC50 ratio mouse/human was 0.6. Besides, in the assay with rat PAI-1 [4], the IC50 chromogenic is 0.0371 µM and the IC50 ratio rat/human worked out at 0.5. Also, the IC50 chromogenic in assay [6] is 0.0746 µM.

B7: Antibody 03, IgG4, not germlined (antibody, V domains shown)
VH: QVQLQQSGAEVKKPGSSVKVSCKASGGTFSSYAISWVRQAPGQGLEWMGGIIPTFGTANYAQKFQGRVTITADESTSTAYMELSGLRSEDTAVYYCAREKRQWLEGHFDYWGRGTPVTVSS
VL: DIQMTQSPSFLSASIGDRVTITCRASEGIYRSLAWYQQKPGKAPKLLIYKASSLASGAPSRFSGSGSGTDFTLTISGLQPDDFATYYCQQYSNYPLTFGGGTKLEIK
Regarding B7, in assay [3], the “IC50 HT-1080 Exo PAI-1” value amounted to 0.0095 µM. The IC50 chromogenic is 0.0005 µM with cynomolgus PAI-1 and 0.0129 µM with mouse PAI-1 [5].

B8: Antibody 04, scFv (scFv, V domains shown)
VH: QVRLQQSGAEVKKPGSSVKVSCKASGGTFSSYAISWVRQAPGQGLEWMGGIIPTFGTANYAQKFRGRVTITANESTSTAYMELSGLRSEDTAVYYCAREKRQWLEGRFDYWGRGTLVTVSS
VL: DIQMTQSPSFLSASIGDRITITCRASEGIYHSLAWYQQKPGKAPKLLIHRATSLASGTPSRFGGSGSGTDFALTISSLQPDDFATYYCQQYSNYPLTFGGGTKLEIK
In the case of B8, the IC50 chromogenic with cynomolgus PAI-1 worked out at 0.0021 µM; with mouse PAI-1 [5], 0.264 µM; in the assay with rat PAI-1 [4], 0.34 µM; in assay [6], 0.0066 µM. Moreover, the IC50 ratio cyno/human with cynomolgus PAI-1 stood at 0.3. For the same molecule, the IC50 ratio mouse/human with mouse PAI-1 [5] is 39.9. The IC50 ratio rat/human in the assay with rat PAI-1 [4] turned out to be 51.4.

B9: Antibody 01, scFv (scFv, V domains shown)
VH: QVQLVQSGAEVKKPGSSVKVSCKASGGTFSSYAISWVRQAPGQGLEWMGGIIPIFGTANYAQKFQGRVTITADESTSTAYMELSSLRSEDTAVYYCAREKRQWLEGHFDYWGRGTLVTVSS
VL: DIQMTQSPSTLSASVGDRVTITCRASEGIYRSLAWYQQKPGKAPKLLIYKASSLASGVPSRFSGSGSGTEFTLTISSLQPDDFATYYCQQYSNYPLTFGGGTKVEIK
In the case of B9, the “IC50 HT-1080 Exo PAI-1” value with mouse PAI-1 [1] turned out to be 0.0345 µM; in assay [3], 0.0239 µM. The IC50 chromogenic with cynomolgus PAI-1 was 0.0012 µM; with mouse PAI-1 [5] it was 0.0283 µM; in the assay with rat PAI-1 [4], 0.208 µM; in assay [6] it was 0.0034 µM. Moreover, the IC50 ratio cyno/human with cynomolgus PAI-1 was 0.4. In the assay with mouse PAI-1 [5], the IC50 ratio mouse/human worked out at 8.2. Also, the IC50 ratio rat/human with rat PAI-1 [4] was 60.5.

B10: Antibody 05, scFv (scFv, V domains shown)
VH: QVQLQQSGAEVKKPGSSVKVSCKASGGTFSSYAISWVRQAPGQGLEWMGGIIPTFSTANYAQKFRGRVTITADESTSTAYMELSGLRSEDTAVYYCAREKRQWLEGHFDYWGRGTPVTVSS
VL: DIQMTQSPSFLSASIGDRVTITCRASEGIYHQLAWYQQKPGKAPKLLIYRASSLASGAPSRFSGSGSGTDFTLTISSLQPDDFATYYCQQYSNYPLTFGGGTKLEIK
Take B10: in the assay with cynomolgus PAI-1, the IC50 chromogenic worked out at 0.0005 µM and the IC50 ratio cyno/human came out at 0.1. Also, in the assay with mouse PAI-1 [5], the IC50 chromogenic amounted to 0.718 µM and the IC50 ratio mouse/human worked out at 144. Further, in the assay with rat PAI-1 [4], the IC50 chromogenic stood at 0.86 µM and the IC50 ratio rat/human is 172. In addition, the IC50 chromogenic in assay [6] came to 0.005 µM.

B11: Antibody 26, scFv (scFv, V domains shown)
VH: QVQLQQSGAEVKKPGTSVKVSCKASGGTFSSYAISWVRQAPGQGLEWMGGIIPIFGTANYAQKFQGRVTITADESTSTAYMELSSLRSEDTAVYYCAREKRQWLEGHFDYWGRGTPVTVSS
VL: DIQMTQSPSFLSASIGDRVTITCRASEGIYHTLAWYQQKPGKAPKLLIYRASSLASGAPSRFSGSGSGTDFTLTISSLQPDDFATYYCQQYSNYPLTFGGGTKLEIK
In the case of B11, the IC50 chromogenic with cynomolgus PAI-1 turned out to be 0.0012 µM; in the assay with mouse PAI-1 [5] it was 0.211 µM; with rat PAI-1 [4] it was 0.245 µM; in assay [6] it was 0.004 µM. Further, the IC50 ratio cyno/human with cynomolgus PAI-1 amounted to 0.3. Besides, the IC50 ratio mouse/human in the assay with mouse PAI-1 [5] came to 52.9. In the assay with rat PAI-1 [4], the IC50 ratio rat/human is 61.4.
